Reference: US20170355773A1 (PELICAN THERAPEUTICS, published 2017)
Residue numbers refer to the chain shown, from its start.

T1: TNFRSF25-Fc protein (UniProt Q93038 25-199, biotinylated in the capture ELISA)
T1 construct: also called TNFRSF25-Fc fusion protein; biotinylated antigen protein
T1 sequence (looked up): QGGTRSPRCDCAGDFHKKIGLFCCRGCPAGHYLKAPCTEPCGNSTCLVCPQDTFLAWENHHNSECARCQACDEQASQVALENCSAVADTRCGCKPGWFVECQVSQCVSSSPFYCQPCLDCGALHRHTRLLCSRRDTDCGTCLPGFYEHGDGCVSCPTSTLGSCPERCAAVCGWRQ

B1: 9A5 (combinatorial scFv clone of W3072-z4C12) (scFv, V domains shown)
VH: EVQLVESGGGLSQPGNSLQLSCEASGFTFSNHDLNWVRQAPGKGLEWVAYISSASGLISYADAVRGRFTISRDNAKNSLFLQMNNLKSEDTAMYYCARDPAYTGLYALDFWGQGTQVTVSS
VL: QPVLTQSPSASASLSGSVKLTCTLSSELSGFTIVWYQQRPDKAPKYVMYLKSDGSHSKGDGIPDRFSGSSSGAHRYLSISNVQSEDDATYFCGAGYTLANQYGWVFGSGTKVTVL
B2: 4B6 (scFv, V domains shown)
VH: B1 VH
VL: B1 VL with G30N, F31Y
B3: WBP330-hPro1.ECD.hFcHis (non-mutated) (Fc fusion)
chain: QGGTRSPRCDCAGDFHKKIGLFCCRGCPAGHYLKAPCTEPCGNSTCLVCPQDTFLAWENHHNSECARCQACDEQASQVALENCSAVADTRCGCKPGWFVECQVSQCVSSSPFYCQPCLDCGALHRHTRLLCSRRDTDCGTCLPGFYEHGDGCVSCPTSTLGSCPERCAAVCGWRQMF
notes: also called recombinant TNFRSF25 polypeptide; non-mutated WBP330-hPro1.ECD.hFcHis; not shown: human Fc and 6His tag (hFc-6His)

Tests used:
TNFRSF25-Fc protein = biological target: T1, TNFRSF25-Fc protein; assay: capture ELISA: scFv captured on anti-c-myc antibody, biotinylated TNFRSF25-Fc, streptavidin-HRP, OD450
W330-cAb1.hIgG1(35783) = biological target: T2, W330-cAb1.hIgG1(35783); assay: ELISA: coated antibody at 5 ug/ml, TNFRSF25 ECD.hFcHis titrated, detection with anti-his-HRP, absorbance at 450 nm; the concentration is that of the TNFRSF25 fusion
T2 construct: Parent hamster anti-TNFRSF25 antibody made chimeric with human IgFc (hIgG1); also called chimeric anti-TNFRSF25 antibody; chimeric parent antibody

| Binder | EC50 (read off the curve) (TNFRSF25-Fc protein) [µg/mL] | EC50 (W330-cAb1.hIgG1(35783)) [µg/mL] |
| --- | --- | --- |
| B1 | ~0.08 |  |
| B2 | ~0.2 |  |
| B3 |  | 4.76 |
